Experimental data: patent EP4755449A2 (CHUGAI SEIYAKU KABUSHIKI KAISHA, dated 2026)

T1: GST-hMSTN 61-160aa (human, UniProt O14793 61-160)
T1 construct: not shown: GST tag of pGEX4.1 vector
T1 sequence: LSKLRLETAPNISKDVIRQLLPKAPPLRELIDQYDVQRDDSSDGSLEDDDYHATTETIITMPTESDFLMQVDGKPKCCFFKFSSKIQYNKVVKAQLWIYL

T2: GST-hMSTN 81-180aa (human, UniProt A1C2U3 81-180 (Pongo pygmaeus entry))
T2 construct: not shown: GST tag of pGEX4.1 vector
T2 sequence: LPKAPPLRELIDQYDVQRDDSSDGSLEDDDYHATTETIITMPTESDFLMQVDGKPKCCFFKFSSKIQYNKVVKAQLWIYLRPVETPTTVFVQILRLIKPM

T3: GST-hMSTN 101-200aa (human, UniProt A1C2U3 101-200 (Pongo pygmaeus entry))
T3 construct: not shown: GST tag of pGEX4.1 vector
T3 sequence: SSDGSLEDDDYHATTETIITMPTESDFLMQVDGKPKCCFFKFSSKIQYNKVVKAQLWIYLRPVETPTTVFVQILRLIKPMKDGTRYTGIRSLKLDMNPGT

T4: GST-hMSTN 121-220aa (human, UniProt A1C2U3 121-220 (Pongo pygmaeus entry))
T4 construct: not shown: GST tag of pGEX4.1 vector
T4 sequence: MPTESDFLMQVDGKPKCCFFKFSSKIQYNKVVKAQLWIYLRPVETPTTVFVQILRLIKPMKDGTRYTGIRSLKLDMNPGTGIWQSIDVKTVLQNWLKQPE

T5: GST-hMSTN 141-241aa (human, UniProt A1C2U3 141-241 (Pongo pygmaeus entry))
T5 construct: not shown: GST tag of pGEX4.1 vector
T5 sequence: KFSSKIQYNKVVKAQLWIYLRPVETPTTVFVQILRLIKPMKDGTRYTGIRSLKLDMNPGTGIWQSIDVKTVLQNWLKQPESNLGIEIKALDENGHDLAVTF

T6: human Fc gamma RIIb on MDCK cells (human, UniProt P31994 43-310)
T6 sequence (looked up): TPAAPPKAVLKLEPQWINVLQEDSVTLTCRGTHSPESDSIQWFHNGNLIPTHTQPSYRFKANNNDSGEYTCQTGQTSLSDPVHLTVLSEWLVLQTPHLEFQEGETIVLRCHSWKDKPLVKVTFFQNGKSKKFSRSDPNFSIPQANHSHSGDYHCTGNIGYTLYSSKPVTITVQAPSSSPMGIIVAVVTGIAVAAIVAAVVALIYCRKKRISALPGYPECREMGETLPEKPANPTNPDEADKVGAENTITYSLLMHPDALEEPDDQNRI

T7: human Fc gamma RIIaH extracellular domain, His-tagged (human, UniProt P12318 34-217)
T7 construct: also called FcgRIIaH; human Fc gamma RIIa (type H)
T7 sequence: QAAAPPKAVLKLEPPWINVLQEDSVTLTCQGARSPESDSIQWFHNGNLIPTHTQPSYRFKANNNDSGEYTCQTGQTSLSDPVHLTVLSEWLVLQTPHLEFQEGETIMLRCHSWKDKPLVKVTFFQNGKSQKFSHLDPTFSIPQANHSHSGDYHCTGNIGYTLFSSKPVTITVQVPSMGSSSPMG

T8: human Fc gamma RIIb extracellular domain, His-tagged (human, UniProt P31994 43-217)
T8 construct: also called FcgRIIb
T8 sequence: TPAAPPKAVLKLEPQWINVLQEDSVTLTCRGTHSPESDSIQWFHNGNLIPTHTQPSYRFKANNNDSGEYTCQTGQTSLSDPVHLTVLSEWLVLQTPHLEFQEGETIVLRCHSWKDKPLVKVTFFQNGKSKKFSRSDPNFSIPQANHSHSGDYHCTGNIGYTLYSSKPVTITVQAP

T9: cyno Fc gamma RIIIaS extracellular domain, His-tagged (cynomolgus monkey, UniProt Q8SPW2 21-206 at identity 1.00))
T9 construct: also called cynoFcgRIIIaS
T9 chain: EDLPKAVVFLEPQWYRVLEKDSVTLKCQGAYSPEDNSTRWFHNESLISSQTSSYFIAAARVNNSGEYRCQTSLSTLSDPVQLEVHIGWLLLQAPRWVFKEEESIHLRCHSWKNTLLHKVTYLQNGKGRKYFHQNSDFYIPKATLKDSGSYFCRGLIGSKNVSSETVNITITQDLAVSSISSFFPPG

T10: cynomolgus monkey latent myostatin (cynomolgus monkey, UniProt Q95J86 25-266; Q95J86 267-375, limits assumed)
T10 construct: also called cyno latent myostatin
T10 sequence 1: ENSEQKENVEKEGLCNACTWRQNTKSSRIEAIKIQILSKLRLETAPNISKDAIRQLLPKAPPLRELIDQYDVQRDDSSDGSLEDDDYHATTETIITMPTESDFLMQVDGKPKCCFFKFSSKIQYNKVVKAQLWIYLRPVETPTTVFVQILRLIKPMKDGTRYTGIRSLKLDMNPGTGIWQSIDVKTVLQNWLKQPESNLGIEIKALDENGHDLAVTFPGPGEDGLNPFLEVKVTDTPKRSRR
T10 sequence 2: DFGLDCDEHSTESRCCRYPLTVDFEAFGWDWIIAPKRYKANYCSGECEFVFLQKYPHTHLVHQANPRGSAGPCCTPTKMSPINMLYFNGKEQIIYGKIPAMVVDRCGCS

T11: human latent myostatin (human, UniProt O14793 25-266; O14793 267-375)
T11 construct: non-covalent complex of two propeptides and the mature homodimer; also called human myostatin latent form
T11 sequence 1: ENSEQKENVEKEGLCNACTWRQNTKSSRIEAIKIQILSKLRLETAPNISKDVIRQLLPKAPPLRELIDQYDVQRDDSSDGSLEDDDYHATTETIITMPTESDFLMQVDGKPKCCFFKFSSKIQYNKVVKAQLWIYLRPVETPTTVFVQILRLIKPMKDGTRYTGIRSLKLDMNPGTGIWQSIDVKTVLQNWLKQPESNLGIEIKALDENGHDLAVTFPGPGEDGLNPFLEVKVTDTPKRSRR
T11 sequence 2: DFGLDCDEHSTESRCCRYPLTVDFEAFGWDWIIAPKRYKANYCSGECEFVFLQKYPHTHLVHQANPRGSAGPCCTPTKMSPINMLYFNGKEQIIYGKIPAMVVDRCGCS

T12: mouse latent myostatin (mouse, UniProt O08689 26-267; O08689 268-376)
T12 sequence 1: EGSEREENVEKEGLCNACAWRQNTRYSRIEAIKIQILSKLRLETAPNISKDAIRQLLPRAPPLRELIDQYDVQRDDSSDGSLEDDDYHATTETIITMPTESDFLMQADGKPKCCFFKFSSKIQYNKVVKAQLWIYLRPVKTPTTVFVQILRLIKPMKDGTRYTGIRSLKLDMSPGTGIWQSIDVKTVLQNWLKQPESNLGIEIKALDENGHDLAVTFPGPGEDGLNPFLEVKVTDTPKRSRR
T12 sequence 2: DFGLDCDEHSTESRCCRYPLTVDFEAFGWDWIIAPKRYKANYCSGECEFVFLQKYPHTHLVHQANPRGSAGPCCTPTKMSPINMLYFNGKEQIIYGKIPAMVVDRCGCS


Assays:
[1] = target: T1, GST-hMSTN 61-160aa; experiment: Western blot
[2] = target: T2, GST-hMSTN 81-180aa; experiment: Western blot
[3] = target: T3, GST-hMSTN 101-200aa; experiment: Western blot
[4] = target: T4, GST-hMSTN 121-220aa; experiment: Western blot
[5] = target: T5, GST-hMSTN 141-241aa; experiment: Western blot
[6] = target: T6, human Fc gamma RIIb on MDCK cells; experiment: cell-based or functional assay
[7] = target: T7, human Fc gamma RIIaH extracellular …; experiment: SPR 25C
[8] = target: T8, human Fc gamma RIIb extracellular …; experiment: SPR 25C
[9] = target: T9, cyno Fc gamma RIIIaS extracellular …; experiment: SPR 25C
[10] = target: T10, cynomolgus monkey latent myostatin; experiment: SPR 37C
[11] = target: T11, human latent myostatin; experiment: SPR 37C pH7.4
[12] = target: T12, mouse latent myostatin; experiment: SPR 37C pH7.4
[13] = target: T10, cynomolgus monkey latent myostatin; experiment: SPR 37C pH5.8; pH 5.8
[14] = target: T10, cynomolgus monkey latent myostatin; experiment: SPR 37C pH7.4; pH 7.4

| Binder | binding result [1] | binding result [2] | binding result [3] | binding result [4] | binding result [5] | also measured |
| --- | --- | --- | --- | --- | --- | --- |
| MST1572 (antibody, human IgG1, kappa, V domains shown) VH: QSVEESGGRLVTPGTPLTLTCTVSGFSLSSYAMSWVRQAPGKGLEWIGIIYGVGSTYYASWAKGRFTISKTSTTVDLKIASPTTEDTATYFCARDDYGWGYTNLWGPGTLVTVSS VL: QVLTQTPSSVSAAVGGTVTINCQSSQSVYNNNYLAWFQQKPGQPPKLLIYDASKLASGVPSRFKGSGSGTQFTLTISGVQCDDAATYYCQGSYYSSGWYRAFGGGTKVEIKR | no binding | no binding | no binding | no binding | no binding | – |
| MST1538 (antibody, human IgG1, kappa, V domains shown) VH: QSLEESGGGLVKPGGTLTLTCKASGIDFSSYYYMCWVRQAPGKGLEWIACIYAGISGSTYYASWAKGRFTISKTSSTTVTLQMTSLTAADTATYFCARDPYHFDYGSLWGPGTLVTVSS VL: ALVMTQTPASVSAAVGGTVTINCQASQSVYGGNELSWYQQEPGQPPKLLIYSASKLASGVPSRFKGSGSGTQFTLTISGVQCDDAAAYYCAGYRTYSDDDNAFGGGTKVEIKR | no binding | no binding | no binding | no binding | no binding | – |
| MS103240H795-TT14/M103202L1045-SK1 (antibody, human IgG1, kappa) heavy: QVQLVESGGGLVQPGGSLRLSCAVSGIDLSHDDISWVRQAPGKGLEWVSIISYAGSTYYASWAKGRLTISKDTSKNQVVLTMTNMDPVDTATYYCARGVPAYSHGGDLWGQGTLVTVSSASTKGPSVFPLAPSSKSTSGGTAALGCLVKDYFPEPVTVSWNSGALTSGVHTFPAVLQSSGLYSLSSVVTVPSSSLGTQTYICNVNHKPSNTKVDKKVEPKSCDKTHTCPPCPAPEYLGGDSVFLFPPKPKDVLMISRTPEVTCVVIDVSHEDPEVKFNWYVDGVEVHNAKTKPREEQYNSTYRVVSVLPVLHQDWLNGKEYKCKVSNKALPKPIEKTISKAKGQPREPQVYTLPPSREEMTKNQVSLTCLVKGFYPSDIAVEWESNGQPENNYKTTPPVLDSDGSFFLYSKLTVDKSRWQQGNVFSCSVMHEALHNHYTQKSLSLSP light: DIVMTQSPATLSLSPGERATLSCTTSQSVYHENWLSWFQQKPGQPPKLLIYWASTLAYGVPSRFSGSGSGTDFTLTISSLQPEDAATYYCAGGYGGGRYAFGQGTKVEIKRTVAAPSVFIFPPSDEQLKSGTASVVCLLNNFYPREAKVQWKVDNALQSGNSQESVTEQDSKDSTYSLSSTLTLSKADYEKHKVYACEVTHQGLSSPVTKSFNRGEC | – | – | – | – | – | antigen fluorescence intensity inside cells (uptake of antigen-antibody complex) [6]: 7.5 fold of SG1 |
| MS103240H795-TT33/M103202L1045-SK1 (antibody, human IgG1, kappa) heavy: QVQLVESGGGLVQPGGSLRLSCAVSGIDLSHDDISWVRQAPGKGLEWVSIISYAGSTYYASWAKGRLTISKDTSKNQVVLTMTNMDPVDTATYYCARGVPAYSHGGDLWGQGTLVTVSSASTKGPSVFPLAPSSKSTSGGTAALGCLVKDYFPEPVTVSWNSGALTSGVHTFPAVLQSSGLYSLSSVVTVPSSSLGTQTYICNVNHKPSNTKVDKKVEPKSCDKTHTCPPCPAPEYLGGDSVFLFPPKPKDVLMISRTPEVTCVVIDVSHEDPEVKFNWYVDGVEVHNAKTKPREEQYNSTYRVVSVLPVLHRDWLNGKEYKCKVSNKALPKPIEKTISKAKGQPREPQVYTLPPSREEMTKNQVSLTCLVKGFYPSDIAVEWESNGQPENNYKTTPPVLDSDGSFFLYSKLTVKKSRWQQGNVFSCSVMHEALHNHYTQKSLSLSP light: DIVMTQSPATLSLSPGERATLSCTTSQSVYHENWLSWFQQKPGQPPKLLIYWASTLAYGVPSRFSGSGSGTDFTLTISSLQPEDAATYYCAGGYGGGRYAFGQGTKVEIKRTVAAPSVFIFPPSDEQLKSGTASVVCLLNNFYPREAKVQWKVDNALQSGNSQESVTEQDSKDSTYSLSSTLTLSKADYEKHKVYACEVTHQGLSSPVTKSFNRGEC | – | – | – | – | – | antigen antibody uptake into the cells [6]: 36 fold of SG1 |
| M103205H795-MY009/M103202L889-SK1 (antibody, human IgG1, kappa, SG1 with P238D (EU); also called MS1032LO06-MY009; copies: 2 + 2) heavy: not shown light: DIVMTQSPATLSLSPGERATLSCTSSQSVYHANWLSWFQQKPGQPPKLLIYWASTLAYGVPSRFSGSGSGTDFTLTISSLQPEDAATYYCAGGYGGGRYAFGQGTKVEIKRTVAAPSVFIFPPSDEQLKSGTASVVCLLNNFYPREAKVQWKVDNALQSGNSQESVTEQDSKDSTYSLSSTLTLSKADYEKHKVYACEVTHQGLSSPVTKSFNRGEC | – | – | – | – | – | binding result [7]: binds; binding result [8]: binds; binding result [9]: binds |
| MS_M103205H1186-SG1/M103202L889-SK1 (antibody, human IgG1, kappa, V domains shown, also called MS1032LO18-SG1) VH: QVTLKESGPVLVKPTETLTLTCTVSGIDLSHDDISWVRQAPGKGLEWVGIISYAGKKYYASWAKGRLTISKDTSKNQVVLTMTNMDPVDTATYYCARGVPAYSHGGDLWGQGTLVTVSS VL: DIVMTQSPATLSLSPGERATLSCTSSQSVYHANWLSWFQQKPGQPPKLLIYWASTLAYGVPSRFSGSGSGTDFTLTISSLQPEDAATYYCAGGYGGGRYAFGQGTKVEIKR | – | – | – | – | – | ratio of KD at pH 5.8/pH7.4 [10]: 229; Kd [11]: 329 pM; Kd [12]: 272 pM; Kd [13]: 80900 pM; Kd [14]: 354 pM |
